Test results from patent US8143228B2, “Agents capable of downregulating an MSF-A dependent HIF-1α and use thereof in cancer treatment” (Medical Research Fund of Tel Aviv Sourasky Medical Center, priority 2004, dated 2012).
Entries after “also recorded” stand apart in the source; their conditions may differ.

Experiments:
HIF-1α protein [1] = assay: HIF-1α protein stability assays (cycloheximide treatment, pulse-chase) in PC-3 cells; format: cell-based; details: PC-3-Neo cells, within 20 minutes, CHX 10 μg/ml, normalized to α-tubulin
Procedure: FIGS. 16a-c are Western blot analyses depicting the effect of cycloheximide (CHX) on the expression level of HIF-1α (FIG. 16a) and α-tubulin (FIG. 16b) in PC-3-Neo or PC-3-MSF-A cells grown under normoxia. CHX was added to PC-3-Neo (lanes 1-5) or PC-3-MSF-A (lanes 6-10) at a final concentration of 10 μg/ml, for 0 (lanes 1 and 6), 5 (lanes 2 and 7), 15 (lanes 3 and 8), 30 (lanes 4 and 9) and 45 (lanes 5 and 10) minutes. Whole cell extracts were prepared and resolved by SDS-PAGE and Western blotting was performed with antibodies against HIF-1α (FIG. 16a) or α-tubulin (FIG. 16b). FIG. 16c is a graph depicting quantitation of the results obtained in FIGS. 16a and b expressed as the ratio of HIF-1α expression level normalized to that of α-tubulin. Note, the relatively slow degradation of HIF-1α in cells over-expressing the MSF-A protein, with a degradation half-life of 40 minutes as compared to the degradation half-life of less than 20 minutes in PC-3-Neo cells (FIG. 16c).
FIGS. 17a-b depict pulse-chase analysis of HIF-1α. […] FIG. 17b-quantification of the autoradiographic HIF-1α signal by densitometry.
HIF-1α protein stability assays—Cells were plated into 6-well plates and grown to 70% confluence. […] Immunoprecipitates were analyzed on SDS-PAGE and visualized by autoradiography.

[2] = system: HIF-1α transcriptional activity; assay: HRE-dependent luciferase reporter gene assay in HEK 293 cells; format: cell-based; details: transient transfection, hypoxia, compared with empty vector
Procedure: FIG. 7 is a graph depicting luciferase activity (a reporter of HIF-1α transcriptional activation) as a function of the presence or absence of the N-terminus of the MSF-A protein. HEK 293 cells were co-transfected with 0.1 μg HRE-dependent luciferase reporter [pBI-GL V6L (Post, D. E., and Van Meir, E. G. 2001. Generation of bidirectional hypoxia/HIF-responsive expression vectors to target gene expression to hypoxic cells. Gene Ther 8, 1801-1807. Mabjeesh, N. J., et al., 2002, Geldanamycin induces degradation of hypoxia-inducible factor 1 alpha protein via the proteasome pathway in prostate cancer cells. Cancer Res 62, 2478-2482) and the wild type (WT) MSF-A (p3xFlag-MSF-A), ΔN-MSF-A (ΔN) (p3xFlag-ΔN-MSF-A) or empty vector (EV) (p3xFlag-cmv-25) constructs as follows: Experiment (Exp.) No. 1=1 μg EV; Exp. No. 2=0.5 μg EV and 0.5 μg WT; Exp. No. 3-1 μg WT; Exp. No. 4=0.5 μg EV and 0.5 μg ΔN; Exp. No. 5=1 μg ΔN. After 24 hours of transfection, cells were subjected to normoxia or hypoxia for overnight and then analyzed for luciferase luminescence assay. Luciferase activity is presented as relative units per μg protein in each experiment. Columns represent means; bars represent SD; n=3; *, p<0.05 compared to hypoxia of EV. Note the significant decrease of luciferase activity in cells grown under hypoxia and transfected with the N-terminus truncated form (ΔN) of MSF-A as compared with cells transfected with the wild-type form of MSF-A. Also note that under normoxia, when the luciferase activity is hardly detected, no significant difference is obtained.
FIG. 8 is a graph depicting luciferase activity (a reporter of HIF-1α transcriptional activation) as a function of the presence or absence of the GTP binding site of MSF-A (ΔG). HEK 293 cells were cotransfected with HRE-dependent luciferase reporter and the expression vector encoding wild-type MSF-A (WT) (p3xFlag-MSF-A), the deleted GTP binding site form of MSF-A (ΔG) (p3xFlag-ΔG-MSF-A) or empty vector (EV) (p3xFlag-cmv-25) and then were exposed to hypoxia conditions as described in the description of FIG. 4, hereinabove. Luciferase activity is presented as relative units per μg protein in each experiment. Columns represent means; bars represent SD; n=3. Note the non-significant effect of the ΔG-MSF-A on HIF-1α activity.
Reporter gene assay and luminescence measurements—HRE-dependent luciferase activity was performed using the pBI-GL construct (pBI-GL V6L) containing six tandem copies of the VEGF hypoxia response element as previously described (Mabjeesh et al., 2002; Post and Van Meir, 2001). […] Luciferase enzymatic activity was measured using the commercial kit TROPIX (Bedford, Mass.) in the Galaxy luminometer (BMG Labtechnologies LUMIstar) following the manufacturer's instructions. […]

HIF-1α protein [3] = target: T1, HIF-1α protein (Homo sapiens, UniProt Q16665); assay: Co-immunoprecipitation / immunoblotting with HIF-1α in transfected HEK 293 cells; format: binding; details: transient transfection
T1 construct: expressed in transfected cells; host or cells: HEK 293
Procedure: FIGS. 9a-c are Western blot analyses of FLAG (MSF-A; FIGS. 9a and b) and HIF-1α (FIG. 9c) depicting the interaction between HIF-1α and the WT or deleted forms of MSF-A. HEK 293 cells were transiently co-transfected with expression vector encoding Flag-MSF-A (WT; p3xFlag-MSF-A), Flag-ΔG (AG; p3xFlag-ΔG-MSF-A), Flag-ΔN (ΔN; p3xFlag-ΔN-MSF-A) or empty vector (EV; p3xFlag-cmv-25). After 48 hours, the cells were lysed, subjected for immunoprecipitation (IP) using HIF-1α antibody and then immunoblotted (IB) with HIF-1α or Flag antibodies. FIG. 9a—whole cell extracts (WCE) subjected to IB with the Flag antibody (MSF-A); FIG. 9b—IP prepared by the HIF-1α antibody were subjected to IB with the Flag antibody (MSF-A); FIG. 9c—IP prepared by the HIF-1α antibody were subjected to IB with the HIF-1α antibody.
Immunoblotting—Proteins (30-60 μg/lane) from WCEs were resolved by 7.5% SDS-PAGE, electro-blotted to nitrocellulose membranes and incubated with the indicated primary antibodies, followed by horseradish peroxidase-conjugated secondary antiserum (Amersham Biosciences, Piscataway, N.J.). Immunoreactivity was visualized by Amersham enhanced chemiluminescence reagent (Amersham Biosciences, Piscataway, N.J.). For sequential blotting with additional antibodies, the membranes were stripped from the first primary antibody using a restore Western blot stripping buffer (Pierce, Rockford, Ill.) and were re-probed using the second primary antibody as indicated.
Immunoprecipitation—Cells were washed twice with ice-cold PBS, lysed in 20 mM Na-HEPES, pH 7.5, 0.5% Nonidet P-40, 0.1M NaCl, 2 mM EDTA, 10% Glycerol and 2 mM DTT supplemented with protease and phosphatase inhibitors, and were subjected to immunoprecipitation using anti-HIF-1α antibody and protein G-agarose beads (Pierce, Ill.) according to the manufacturer's instructions.
To confirm the interaction between the HIF-1α and the MSF-A proteins, HEK 293 cells were transiently co-transfected with the p3xFlag-MSF-A and the pcDNA3.1-HIF-1α vectors, and were grown for 24 hours under normoxic conditions (i.e., conditions of 20% oxygen), following which whole cell extracts (WCE) were subjected to co-immunoprecipitation (IP) using anti-FLAG or anti-HIF-1α antibodies. Following IP, the proteins were subjected to SDS-PAGE and immunoblotting (IB) using the counterpart antibody. As is shown in FIGS. 3a-d, following transfection with both expression vectors (i.e., pcDNA3.1-HIF-1α and p3xFlag-MSF-A) immunoprecipitates generated using either the anti-HIF-1α antibody or the anti-Flag antibody included the reciprocal proteins, i.e., the Flag-MSF-A or HIF-1α proteins, respectively.

T1 sequence (Q16665 whole entry): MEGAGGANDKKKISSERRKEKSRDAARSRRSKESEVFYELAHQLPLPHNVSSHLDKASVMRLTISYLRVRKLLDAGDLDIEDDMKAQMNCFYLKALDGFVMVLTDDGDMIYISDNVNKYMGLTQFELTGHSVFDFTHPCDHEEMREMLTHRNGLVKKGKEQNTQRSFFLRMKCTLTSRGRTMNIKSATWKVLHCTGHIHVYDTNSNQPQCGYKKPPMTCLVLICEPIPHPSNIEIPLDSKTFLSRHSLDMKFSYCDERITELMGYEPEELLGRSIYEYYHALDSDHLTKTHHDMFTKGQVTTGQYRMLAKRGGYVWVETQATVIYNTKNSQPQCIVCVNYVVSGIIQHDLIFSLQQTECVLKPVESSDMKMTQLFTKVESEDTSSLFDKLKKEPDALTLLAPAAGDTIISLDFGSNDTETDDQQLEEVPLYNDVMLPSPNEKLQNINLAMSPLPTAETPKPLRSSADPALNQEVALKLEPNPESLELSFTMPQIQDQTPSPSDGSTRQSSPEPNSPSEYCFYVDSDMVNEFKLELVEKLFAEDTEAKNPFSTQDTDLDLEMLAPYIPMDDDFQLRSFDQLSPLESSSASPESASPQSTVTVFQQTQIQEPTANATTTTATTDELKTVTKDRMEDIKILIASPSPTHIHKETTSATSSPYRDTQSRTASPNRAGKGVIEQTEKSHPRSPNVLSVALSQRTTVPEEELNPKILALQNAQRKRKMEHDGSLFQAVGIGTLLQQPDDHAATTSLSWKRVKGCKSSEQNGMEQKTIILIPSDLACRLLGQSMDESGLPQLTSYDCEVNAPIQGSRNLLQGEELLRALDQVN

Row | association with HIF-1α protein (co-immunoprecipitation) (HIF-1α protein [3]) | association with HIF-1α protein (co-immunoprecipitation) (HIF-1α protein [3]; listed as ΔG-MSF) | association with HIF-1α protein (co-immunoprecipitation) (HIF-1α protein [3]; listed as N-terminal truncated form of MSF-A) | association with HIF-1α protein (co-immunoprecipitation) (HIF-1α protein [3]; listed as ΔN-MSF) | Molecule | HIF-1α protein levels after exposure to CHX (HIF-1α protein [1]) | HIF-1α transcriptional activity (luciferase reporter) [2] | HIF-1α transcriptional activity (luciferase reporter) ([2]; listed as ΔG-MSF)
1 | – | – | – | – | C[C@@H]1C[C@@H]([C@H](O)CC2CC(=O)NC(=O)C2)C(=O)[C@@H](C)C1 [CHX, cycloheximide] | about 50% | – | –
2 | capable of binding | co-immunoprecipitated | – | – | ΔG-MSF-A: MSF-A mutant lacking the GTP binding domain, deletion of amino acids 305-312 GQSGLGKS (SEQ ID NO:4215) (protein, listed as Homo sapiens, 3xFlag tag) MKKSYSGGTRTSSGRLRRLGDSSGPALKRSFEVEEVETPNSTPPRRVQTPLLRATVASSTQKFQDLGVKNSEPSARHVDSLSQRSPKASLRRVELSGPKAAEPVSRRTELSIDISSKQVENAGAIGPSRFGLKRAEVLGHKTPEPAPRRTEITIVKPQESAHRRMEPPASKVPEVPTAPATDAAPKRVEIQMPKPAEAPTAPSPAQTLENSEPAPVSQLQSRLEPKPQPPVAEATPRSQEATEAAPSCVGDMADTPRDAGLKQAPASRNEKAPVDFGYVGIDSILEQMRRKAMKQGFEFNIMVVTLINTLFKSKISRKSVQPTSEERIPKTIEIKSITHDIEEKGVRMKLTVIDTPGFGDHINNENCWQPIMKFINDQYEKYLQEEVNINRKKRIPDTRVHCCLYFIPATGHSLRPLDIEFMKRLSKVVNIVPVIAKADTLTLEERVHFKQRITADLLSNGIDVYPQKEFDEDSEDRLVNEKFREMIPFAVVGSDHEYQVNGKRILGRKTKWGTIEVENTTHCEFAYLRDLLIRTHMQNIKDITSSIHFEAYRVKRLNEGSSAMANGVEEKEPEAPEM | – | no significant effect | lack of activation
3 | capable of binding | – | unable to form a protein complex | co-immunoprecipitated | ΔN-MSF-A: N-terminal truncated MSF-A, deletion of the first 25 amino acids (SEQ ID NO:10, encoded by SEQ ID NO:7) (protein, listed as Homo sapiens, 3xFlag tag) ALKRSFEVEEVETPNSTPPRRVQTPLLRATVASSTQKFQDLGVKNSEPSARHVDSLSQRSPKASLRRVELSGPKAAEPVSRRTELSIDISSKQVENAGAIGPSRFGLKRAEVLGHKTPEPAPRRTEITIVKPQESAHRRMEPPASKVPEVPTAPATDAAPKRVEIQMPKPAEAPTAPSPAQTLENSEPAPVSQLQSRLEPKPQPPVAEATPRSQEATEAAPSCVGDMADTPRDAGLKQAPASRNEKAPVDFGYVGIDSILEQMRRKAMKQGFEFNIMVVGQSGLGKSTLINTLFKSKISRKSVQPTSEERIPKTIEIKSITHDIEEKGVRMKLTVIDTPGFGDHINNENCWQPIMKFINDQYEKYLQEEVNINRKKRIPDTRVHCCLYFIPATGHSLRPLDIEFMKRLSKVVNIVPVIAKADTLTLEERVHFKQRITADLLSNGIDVYPQKEFDEDSEDRLVNEKFREMIPFAVVGSDHEYQVNGKRILGRKTKWGTIEVENTTHCEFAYLRDLLIRTHMQNIKDITSSIHFEAYRVKRLNEGSSAMANGVEEKEPEAPEM | – | dose-dependent inhibition; also recorded: inhibition of HIF-1α activation below the level observed in cells transfected with the empty vector | –
